Measured values from patent US12565520B2, “Chemically-stabilized allosteric modulators of leucine-rich repeat kinase 2 (LRRK2)” (UNIVERSITY OF GEORGIA RESEARCH FOUNDATION, INC., priority 2020, dated 2026).
Values belong to the binder of their own block, whether it stands above or below them. Positions of bridges follow the written chain, without caps; N, C: chain ends. Non-standard residues stand in square brackets, D forms with d. Primed or numbered codes have the meaning given here. PEG3″ = N-terminal PEG3 linker; FAM″ = 5,6-carboxyfluorescein; S5 = C=CCCC[C@](C)(N)C(=O)O; Nle = CCCC[C@H](N)C(=O)O

Experiments:
MBP-tagged CORB [1] = target: T1, MBP-tagged CORB (human, UniProt Q5S007 1672-1840); assay: fluorescence polarization, 10 nM FAM-labeled peptide
T1 construct: range 1672-1840; Purified from E. coli BL21(DE3); also called C-terminal part of the COR domain; His6-MBP-tagged COR-B; not shown: N-terminal His6-MBP tag (pDEST-566)

[2] = target: T2, MBP-tagged RocCOR LRRK2 protein (human, UniProt Q5S007 1293-1840, limits assumed); assay: as above
T2 construct: domain: RocCOR; Purified from E. coli; FP done in the presence of GTP and MgCl2; also called His6-MBP-tagged RocCOR; not shown: N-terminal His6-MBP tag
T2 sequence (looked up): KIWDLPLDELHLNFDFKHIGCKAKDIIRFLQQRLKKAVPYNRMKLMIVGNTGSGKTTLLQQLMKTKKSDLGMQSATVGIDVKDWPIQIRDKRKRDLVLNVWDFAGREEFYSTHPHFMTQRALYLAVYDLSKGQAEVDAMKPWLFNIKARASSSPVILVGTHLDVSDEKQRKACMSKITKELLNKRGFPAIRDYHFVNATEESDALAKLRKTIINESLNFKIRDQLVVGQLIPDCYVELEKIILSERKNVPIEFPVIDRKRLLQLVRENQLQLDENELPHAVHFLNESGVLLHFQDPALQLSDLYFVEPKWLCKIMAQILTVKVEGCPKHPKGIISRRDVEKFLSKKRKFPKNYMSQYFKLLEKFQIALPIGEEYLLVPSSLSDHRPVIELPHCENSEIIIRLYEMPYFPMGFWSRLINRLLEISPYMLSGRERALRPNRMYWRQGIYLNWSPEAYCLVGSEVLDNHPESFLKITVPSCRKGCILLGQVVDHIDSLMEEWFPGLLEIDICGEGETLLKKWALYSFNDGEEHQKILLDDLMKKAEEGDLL

MBP-tagged CORB [3] = target: T1, MBP-tagged CORB; assay: fluorescence polarization, 10 nM FAM-labeled peptide, MBP-CORB titrated
Experimental: Fluorescence Polarization (FP) Assays. […] Each FAM-labeled peptide was plated at a final in-well concentration of 10 nM in 384-well microtiter plates. 1:2 dilutions of the protein were then performed from a concentration range of 5 μM to 1 nM. For each peptide: protein interaction, a range of at least 10 protein concentrations was examined, and each concentration was performed in triplicate. The assay was performed in FP buffer (20 mM MOPS pH 7, 150 mM NaCl, and 0.005% CHAPS) at room temperature. The peptide:protein mixture was incubated at room temperature for 2 hours with readings taken every 30 minutes. The final readings were obtained at 2 hours.
The binding affinities of these two peptides towards LRRK2 was measured using fluorescence polarization (FP). Two MBP-tagged protein constructs, CORB and RocCOR, were purified and plated in concentrations ranging from 5 μM to 1 nM along with 10 nM FAM-labeled peptide, 2 mM GTP and 10 mM MgCl_2.

B1: FAM-labeled LCIP1 scramble (peptide)
peptide: {FAM″-PEG3″}-GKWEK[S5]GEL[S5]KL-NH2
modifications: staple 6-10
notes: Scrambled control of LCIP1; also called scrambled peptide control
binding result (MBP-tagged CORB [1]): no binding (tested: protein 5 µM to 1 nM)

B2: FAM-labeled LRIP4 scramble (peptide)
peptide: {FAM″-PEG3″}-Q[Nle]DKAESKNKERKLC[S5]TIK[S5]-NH2
modifications: staple 16-20
notes: Scrambled control of LRIP4; also called scrambled peptide control
binding result [2]: no binding (tested: protein 5 µM to 1 nM)

Kd (MBP-tagged CORB [3]): 1000 nM
Binder: {FAM″-PEG3″}-KGEGE[S5]LLK[S5]WK-NH2 (staple 6-10, 16) [FAM-labeled LCIP1]
